Data on two proteins can be found in doi:10.1101/2023.11.26.568713v1.

Substrate in data set [1]: O=CC(=O)O
As to the kind of experiment: purified protein, by the assay type. The note with it: pH 7.6; 30.0 °C.

Substrate in data set [2]: O=CC(=O)O
As to the kind of experiment: purified protein, by the assay type. The settings on record: pH 7.6; 30.0 °C. The source holds these as a separate data set.

B1: BhcA (Paracoccus denitrificans PD1222) (protein)
chain: MTSQNPIFIPGPTNIPEEMRKAVDMPTIDHRSPVFGRMLHPALEGVKKVLKTTQAQVFLFPSTGTGGWETAITNTLSPGDKVLAARNGMFSHRWIDMCQRHGLDVTFVETPWGEGVPADRFEEILTADKGHEIRVVLATHNETATGVKSDIAAVRRALDAAKHPALLFVDGVSSIGSMDFRMDEWGVDIAVTGSQKGFMLPPGLAIVGFSPKAMEAVETARLPRTFFDIRDMATGYARNGYPYTPPVGLINGLNASCERILAEGLENVFARHHRIASGVRAAVDAWGLKLCAVRPELYSDSVSAIRVPEGFDANLIVSHALETYDMAFGTGLGQVAGKVFRIGHLGSLTDAMALSGIATAEMVMADLGLPIQLGSGVAAAQEHYRQTTAAAQKKAA
For the protein B1, the Michaelis-Menten constant (Km) amounted to 140 ± 20 µM in data set [1] and 190 ± 20 µM in data set [2].

B2: GGT1 (Arabidopsis thaliana) (protein)
chain: MALKALDYDTLNENVKKCQYAVRGELYLRASELQKEGKKIIFTNVGNPHALGQKPLTFPRQVVALCQAPFLLDDPNVGMLFPADAIARAKHYLSLTSGGLGAYSDSRGLPGVRKEVAEFIQRRDGYPSDPELIFLTDGASKGVMQILNCVIRGNGDGILVPVPQYPLYSATISLLGGTLVPYYLDESENWGLDVANLRQSVAQARSQGITVRAMVIINPGNPTGQCLSEANIREILKFCYNEKLVLLGDEVYQQNIYQDERPFISSKKVLMEMGSPFSKEVQLVSFHTVSKGYWGECGQRGGYFEMTNLPPRVVEEIYKVASIALSPNVSAQIFMGLMVNPPKPGDISYDQFARESKGILESLRRRARLMTDGFNSCKNVVCNFTEGAMYSFPQIRLPTGALQAAKQAGKVPDVFYCLKLLEATGISTVPGSGFGQKEGVFHLRTTILPAEDEMPEIMDSFKKFNDEFMTQYDNNFGYSKM
Take B2: the Km in data set [1] is 330 ± 30 µM.

What is called Km is the substrate concentration at which the rate is half of its maximum.
